The supplement of paper PMC9170038

System: MS2 coat protein
Test: apparent KD of MS2 coat protein; higher = weaker reporter binding
Settings: Eterna round: R107
How it was run: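 Apparent KD per design is the median of normalised cluster binding-curve fits. Designed RNA switches transcribed on-chip from Illumina sequencing clusters were titrated with SNAP-549-labelled MS2 coat protein in twofold steps from 0.7 or 1.5 nM to 3 µM, with 0.8–1.5 h down to 10–20 min per step. Buffer: 100 mM Tris-HCl pH 7.5, 80 mM KCl, 4 mM MgCl2, without or with constant ligand.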

[1] = input ligand: theophylline 20 uM
[2] = input ligand: tryptophan 2.4 mM
[3] = input ligand: theophylline 2 mM

Sequence	apparent KD of MS2 coat protein (input ligand: arginine 13.2 mM)	apparent KD of MS2 coat protein [1]	apparent KD of MS2 coat protein [2]	apparent KD of MS2 coat protein (input ligand: none)	apparent KD of MS2 coat protein [3]
AGCGACAUGCGUGAUACCAGCUACAUGAGGAUCACCCAUGUAAGUAGGAAACUACUGUGUAGCCCUUGGCAGCACAGUGCAUGUC [Exclusion - Theophylline B (Freestyle 23)]	10.3 nM	14 nM	10.8 nM		
AGCGACAUGCGUGAUACCAGCUACAUGAGGAUCACCCAUGUAAGUAGGAAACUACUGUGUAGCCCUUGGCAGCAUAGUGCAUGUC [Exclusion - Theophylline B (Freestyle 22)]	13.4 nM	23.5 nM	15 nM		
AGCGGAACGGAAGGGUCCCAAAAUUGUGAUACCAGCCUUGAAUCCGGCCCUUGGCAGCACAUGAGGAUCACCCAUGUACUGCGGU [Celate]	11.1 nM	24.6 nM	14.4 nM	11 nM	123 nM
AGCGGCUCGAAAGAGUCGCACUCAUGUGAAGGAGCGCCCGUUAGGGCAGGUAGGUCGCACAUGAGGAUCACCCAUGUACCUUCUA [MAT - Exclusion Arginine A - Mod of Eli - D19]	53.1 nM	282 nM	140 nM	196 nM	312 nM
AGCGUAUAGACGGAUACCAGCGCCAAUUAACAUGAGGAUCACCCAUGUAGUGUGGGUGGACGCCCUUGGCAGCCGAGUAUAGGUA [Exclusion - Theophylline B / A]	57.3 nM	274 nM	250 nM		
AGCGUUCAGCUUAUACUGGACAAUGGGUGACGAGGACCGGUACGGCCGCCACUCGGGCGCCCGGUUACAUGAGGAUCACCCAUGU [Vedizaus]	52.2 nM	213 nM	20.5 nM	195 nM	212 nM
AGCUCGCUUCCUCAAGCGUCAAAGACGCGUCGAGGACCGGUACGGCCGCCACUCGACCUGAGGAUCACCCGGGUCUAAGCGAGCA [TrypAX 8 #SwitchBubble #AlternativeMS2 #MS2Late #CuTurnoff]	45.8 nM	136 nM	325 nM	115 nM	177 nM
AGGACUUGCGUUCAAAAUCCCAUGUUGGAAGGAGCGCAUAUAGUUGCAGGUAGGUCGCCGACAUGAGGAUCACCCAUGUCUUUUC [Zasorequer]	36 nM	43.8 nM	35.2 nM	40.3 nM	40.5 nM
AGUACUCGAACGGAUACCAGCCGGACAUGAGGAUCACCCAUGUCCUACCAAUGUUCGGUUGGCCCUUGGCAGCCGUUCGUGUACA [Omei Theo B SS A v5]	99.5 nM	404 nM	599 nM		
AGUAGUUGACAAAAGUCAGCUACAACUGAAGGAGCGGGUGGGUGCCCAGGUAGGUCGCGGAAACAUGAGGAUCACCCAUGUAUAA [ArgAS 1 #BothOrNeither #OpenEnded]	37.3 nM	19.4 nM	21.7 nM	13.1 nM	21.7 nM
AGUCUUAUAGGAAGGAGCGCAUACUUCACAUGAGGAUCACCCAUGUCAAGACGUGAGUCAAUGCAGGUAGGUCGCCUAACUAAGA [Same State - Arginine B (Freestyle 12)]	18 nM	20.4 nM	14.6 nM	18.8 nM	17.7 nM
AGUCUUAUAGGAAGGAGCGCAUACUUCACAUGAGGAUCACCCAUGUCAAGGAGUGAGUCAAUGCAGGUAGGUCGCCUAACUAAGA [Same State - Arginine B (Freestyle 10)]	38.6 nM	112 nM	88.3 nM	108 nM	139 nM
AGUCUUGAACGAAGGAGCGACGUACAUGAGGAUCACCCAUGUGGGAGCGAAAGCUCCCAACGUCAGGUAGGUCGCGUUCGAGACA [SS-ArgB29]	16.9 nM	24.7 nM	18.5 nM	17.7 nM	20.4 nM
AGUCUUGAACGAAGGAGCGACGUACAUGAGGAUCACCCAUGUGUAGGAGCGAAAGCUCCACGUCAGGUAGGUCGCGUUCGAGACA [Omei Arginine B SS A v4]	12.1 nM	14.4 nM	13.9 nM	11.7 nM	12.5 nM
AGUGUCGGAGCGGCCGCCACUAGCACAUCUGGUCGCCAUGGCAACAUGAGGAUCACCCAUGUUGCUAGGACCGGGCUCAAUAUUU [Maengele]	8.37 nM	10.9 nM			8.8 nM
AGUUUAGACACGGCCGCCACUCGUGACAGAUUUAGCAGUGGUCAACAUGAGGAUCACCCAUGUCUGAGGACCGGGUGUUGAGUUU [XTryp B #6]	78.9 nM	176 nM			217 nM
AUAAAUAAUAAAUAAAAUAAAAUGGGUGAACGAGGACCGGUACGGCCGCCACUCGGACAUGAGGAUCACCCAUGUCCAUGUGAAA [#21 Exclusion Tryptophan A]	15.6 nM	20.3 nM			22.7 nM
AUAACAUGAGGAUCACCCAUGUAAGCUGAAGGAGCGCUGGAAACAGCAGGUAGGUCGCAGCAUGUUUCCAAUCCUCAUGGAAACA [(M1)-(M2)-(Arg1)-(Arg2)-(A)'-(M)'-(A)''_Design9]	53.4 nM	159 nM	105 nM	152 nM	136 nM

Sequence	apparent KD of MS2 coat protein (input ligand: arginine 13.2 mM)	apparent KD of MS2 coat protein [1]	apparent KD of MS2 coat protein [2]	apparent KD of MS2 coat protein (input ligand: none)	apparent KD of MS2 coat protein [3]
AUAACGAGUGGUGGAAUACAUGGGUGAUAACGAGGACCGGUACGGCCGCCACUCGAUAACAUGAGGAUCACCCAUGUAAUAAUAA [|T'-M'-Trp-Ms2|_Design18]	57.3 nM	160 nM			139 nM
AUAACUGUAAUAAACCGCAGGCUAGUGGAAGGAGCGCGGAAUAACGCAGGUAGGUCGCCACAAACUUGAGGAUCACCCAGGUGGC [SSAA NP+V+V2 #7 Diff Apt]	38.1 nM	78.8 nM	48.6 nM	49 nM	57.7 nM
AUAAGCUGUACCGGAAUAUCCUCAUGUAUACGAGGACCGGUACGGCCGCCACUCGAUAACAUGAGGAUCACCCAUGUAAUAAUAA [|T'-M'-Trp-Ms2|_Design20]	14.2 nM	15.4 nM			14.5 nM
AUAAGUAAUGUUUCGUGUAUUAUUACAGAUACCAGACUAUCCUAUGUCCCUUGGCAGCUGGAUUACAUGAGGAUCACCCAUGUUG [JR_ExcTheophyA_Sub001]	15.7 nM	20.3 nM	17.1 nM		
AUAAGUAAUGUUUCGUGUUUUAUUACAGAUACCAGACUAUACGUUGUCCCUUGGCAGCUGGAUUACAUGAGGAUCACCCAUGUUG [JR_ExcTheophyA_Sub003]	17.6 nM	26.5 nM	18.5 nM		
AUAAUAAUCCUCAUGUAAGGUCCUCGAUAACGAGGACCGGUACGGCCGCCACUCGAACAUGAGGAUCACCCAUGUACGAGGACCA [M' - T' - T - MS2 - T'' Design 1]	19.6 nM	37 nM			38.2 nM
AUAAUAGGGAUAAUUAGUUUUAGGUCCAGUCGAGGACCGGUACGGCCGCCACUCGUACAGAAAUACAUGAGGAUCACCCAUGUUA [JR_SSTryptoA_Sub005]	14 nM	21.5 nM	16.1 nM	13.6 nM	15.1 nM
AUACAUGAGGAUCACCCAUGUAUAGAUGAAGGAGCGACCAGAGGGUCAGGUAGGUCGCAUCACAUGAGGAUCACCCAUGUAUCGA [DOUBLE!!! :-D #8]	33.6 nM	53 nM	47.1 nM	56.8 nM	67.2 nM
AUACAUGAGGAUCACCCAUGUCCUCGUGAUCGAGGACCGGUACGGCCGCCACUCGGUCCUCGCGAGGAGGAGUCAAAGACUCCUA [Omei Trp A SS A v6]	97.2 nM	230 nM			240 nM
AUACAUGAGGAUCACCCAUGUCCUCGUGAUCGAGGACCGGUACGGCCGCCACUCGGUCCUCGCGAGGUGGAGUCAAAGACUCCAA [Omei Trp A SS A v5]	109 nM	166 nM			137 nM
AUACAUGAGGAUCACCCAUGUUAUAGUGAAGGAGCGACAUUUAUGUCAGGUAGGUCGCACUAAAGUUUAAUAAUUCUUUGAUCUU [JR_SSArginiA_Sub011]	18.6 nM	24.9 nM	18.6 nM	15.7 nM	15.6 nM
AUACAUGAGUGUUUGAUUAUAGAAACUGAAGGAGCGUGGUAGUACACAGGUAGGUCGCAGUAAAUACAUGAGGAUCACCCAUGUU [JR_Nu_SSArginiA_Sub026]	29.2 nM	36.5 nM	38.4 nM	32.9 nM	36.5 nM
AUACCUAAUGUUACGUUUUCCUUUUCAGAUACCAGACUUUACGUUGUCCCUUGGCAGCUGUAUUACAUGAGGAUCACCCAUGUUG [JR_SSTheophyA_Sub008]	19.8 nM	26.7 nM	20.4 nM		
AUACGGAACAGAAGGAGCGCACCGACAUGAGGAUCACCCAUGUGGGAUGGGACUCUUUUGGUGCAGGUAGGUCGCUGUCACGCAU [Maistile]	129 nM	51.9 nM	35.5 nM	35 nM	44 nM
AUAGUUAUCAGAAGGAGCGUCAUUAACAUGAGGAUCACCCAUGUAACAUUGAAUUCGAUGAGACAGGUAGGUCGCUGAAUAUUAA [SS-ArgB28]	32.3 nM	48 nM	36 nM	39.6 nM	41.7 nM
AUAUAUACAUGAGGAUCACCCAUGUUAUUUCGAGGACCGGUACGGCCGCCACUCGAUAGAGUAGAAGUAACAUUUGUUAGAUGAU [JR_SSTryptoA_Sub012]	23.9 nM	25.2 nM			24.4 nM
AUAUUUAACGGAAGGAGCGGGAAAUAAUCAUGAUGACAUGAGGAUCACCCAUGUCUUAAAACCCAGGUAGGUCGCCGAAUAAUAA [Same State - Arginine B]	12.1 nM	14.5 nM	11.7 nM	11.1 nM	13 nM
